Results published in patent publication US9234893B2, “Marker comprising anti-CK8/18 complex autoantibody and its use for diagnosing cancer” (Korea Research Institute of Bioscience and Biotechnology, priority 2011, dated 2016).
“Also recorded” adds a separate entry of the source.

T1: CK18 (Homo sapiens, UniProt P05783)
T1 construct: made in house; host or cells: E. coli BL21 (DE3)
T1 sequence (P05783 1-430): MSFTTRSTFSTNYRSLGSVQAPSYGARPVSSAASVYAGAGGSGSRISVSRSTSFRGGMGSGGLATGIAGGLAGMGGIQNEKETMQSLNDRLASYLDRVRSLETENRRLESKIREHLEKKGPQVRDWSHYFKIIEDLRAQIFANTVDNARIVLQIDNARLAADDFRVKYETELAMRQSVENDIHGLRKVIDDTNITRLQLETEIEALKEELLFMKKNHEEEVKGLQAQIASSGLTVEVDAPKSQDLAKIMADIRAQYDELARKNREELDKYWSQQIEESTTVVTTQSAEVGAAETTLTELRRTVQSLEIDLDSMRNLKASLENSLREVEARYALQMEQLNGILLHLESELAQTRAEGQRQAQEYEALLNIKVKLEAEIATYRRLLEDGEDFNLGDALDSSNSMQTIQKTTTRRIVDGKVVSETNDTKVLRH

T2: CK8 (Homo sapiens, UniProt P05787)
T2 construct: made in house; host or cells: E. coli BL21 (DE3)
T2 sequence (P05787 1-483): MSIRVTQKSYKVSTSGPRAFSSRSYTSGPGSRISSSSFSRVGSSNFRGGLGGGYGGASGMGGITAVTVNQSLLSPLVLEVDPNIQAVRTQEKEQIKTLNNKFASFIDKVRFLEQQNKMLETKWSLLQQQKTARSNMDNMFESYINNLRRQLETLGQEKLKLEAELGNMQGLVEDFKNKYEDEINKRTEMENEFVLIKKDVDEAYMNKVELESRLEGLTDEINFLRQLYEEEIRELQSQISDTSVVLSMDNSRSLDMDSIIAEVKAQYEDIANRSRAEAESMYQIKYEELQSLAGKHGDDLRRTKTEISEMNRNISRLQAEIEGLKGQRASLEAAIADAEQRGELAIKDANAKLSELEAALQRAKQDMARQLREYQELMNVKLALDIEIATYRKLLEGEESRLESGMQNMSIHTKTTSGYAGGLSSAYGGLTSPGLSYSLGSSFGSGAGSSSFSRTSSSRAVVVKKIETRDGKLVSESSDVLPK

T3: CK8/18 complex (Homo sapiens, UniProt P05783+P05787)
T3 construct: made in house; host or cells: E. coli BL21 (DE3)
T3 sequence (P05787 1-483): T2 sequence (P05787 1-483)
T3 sequence (P05783 1-430): T1 sequence (P05783 1-430)

T4: CK8/18 mixture (CK8/18 complex) (Homo sapiens, UniProt P05783+P05787)
T4 construct: made in house; host or cells: E. coli BL21 (DE3)
T4 sequence (P05787 1-483): T2 sequence (P05787 1-483)
T4 sequence (P05783 1-430): T1 sequence (P05783 1-430)

B1: TAB-K94 antibody: Monoclonal autoantibody against cytokeratin 8/18 complex from hybridoma KCTC 11799BP; heavy chain SEQ ID NO. 1, light chain SEQ ID NO. 2 (antibody, V domains shown)
VH: XVXLXQSGPGILQPSQTLSLTCSFSGFSLSTFGMGVGWIRQPSGKGLEWLAHIWWDDDKYYNPALKSRLTISKDTSKNQVFLKIANVDTADTATYYCARIGGYYGSSSWYFDVWGTGTTVTVSSESQSFPNVRSS
VL: DIVITQTPSSLSASLGGKVTITCKASQDINKYIAWYQHKPGKGPRLLIHYTSTLQPGIPSRFSGSGSGRDYSFSISNLEPEDIATYYCLQYDNLLTFGGGTKLEIKRADAAPTVS
modifications: not fully specified; a heavy chain variable region; a light chain variable region

Experiments:
TAB-K94 antibody = test: ELISA with selected phage as coating antigen and TAB-K94 antibody as primary antibody; type: binding, mouse; conditions: 100 ng/100 μl TAB-K94 antibody, absorbance at 450 nm
Procedure: In order to examine the reactivity of the selected TAB-K94 antibody-specific phages against TAB-K94 antibody, ELISA was performed using the phage as a coating antigen and TAB-K94 antibody as a primary antibody. The detailed method is as follows:
[…] was diluted in 100 μl of a coating solution (0.1 M sodium bicarbonate buffer, pH 8.6) and added to each well of 96-well Maxisorp ELISA plate. For antigen coating, the phage-added plate was stored at 4° C. for 16 hours or longer. After phage coating, 300 μl of skim milk solution (5% (w/v) skim milk/TBST) was added, and reacted at room temperature for 1 hour to block the remaining sites after antigen coating. After blocking, the plate was washed with TBST (TBS containing 0.1% Tween-20) twice, and 100 ng/100 μl of TAB-K94 antibody was added thereto, and reacted at room temperature for 90 minutes. […] The secondary antibody was also reacted at room temperature for 90 minutes, and the plate was washed with TBST six times. Color development was performed using a TMB solution (Pierce) as a substrate for HRP. Absorbance was measured at 450 nm to quantify the antigen-antibody reaction.

CK18 [1] = target: T1, CK18; test: ELISA with recombinant protein as coating antigen; type: binding
CK8 [2] = target: T2, CK8; test: ELISA with recombinant protein as coating antigen; type: binding
[3] = system: HepG2, MCF-7 and HT29 cells; test: Intracellular localization by fluorescence staining and confocal laser microscopy; type: cell-based; conditions: primary antibody 5 μg/ml
Procedure: In order to examine intracellular localization of the TAB-K94 antigen expression, the corresponding cells were cultured on a coverslip, and then intracellular staining was performed, followed by observation using confocal laser microscopy (Zeiss). […] The stained coverslip was treated with a mounting solution containing DAPI, and placed on a slide. […] It was confirmed that the TAB-K94 antibody-specific antigen is a CK8/18 complex, and thus the cells were stained with CK8 and CK18-specific antibodies to compare with the localization of TAB-K94 antibody reaction.

[4] = system: liver cancer cell line HepG2; test: Flow cytometry after intracellular staining of cell lines with TAB-K94 antibody; type: cell-based
Procedure: (§1) The reactivity of autoantibodies against cancer cells was examined by flow cytometric analysis of cancer cell line after intracellular staining following the fixation and permeabilization. The method is described in detail as follows. A liver cancer cell line, HepG2 or Hepa1c1c7 at 70-80% confluency was treated with trypsin, detached from the cell culture plate, and washed with PBS. 100 μl of Cytofix/Cytoperm solution (BD) per 2×10^5 cells was added thereto, and the cells were incubated at 4° C. for 20 minutes for fixation and permeabilization. After incubation, 1 ml of Cytowash/Cytoperm solution (BD) was added and mixed well. Then the mixture was centrifuged at 1700 rpm for 5 minutes and the cell pellet was washed. 50 μl of a primary antibody solution (B cell hybridoma cell culture medium or purified primary antibody solution) was added to the washed sample, and the incubation was performed at 4° C. for 40 minutes. After incubation, the cells were washed three times, and treated with anti-mouse Igs-RPE (DaKo) at 4° C. for 40 minutes. Then, the cells were washed an additional three times, and the cell pellet was resuspended in 300 μl of PBS, followed by analysis using a FACSCaliber (BD). Mean values of fluorescence corresponding to antibody reactions were obtained and compared. 50 μl of mouse antibody free DMEM medium was added to the control group showing no antibody reaction.
(§2) The reactivity of TAB-K94 autoantibodies against various cancer cell lines was examined by flow cytometric analysis after intracellular staining of various cancer cell lines in the same manner as in Example 1 (FIG. 3A).

Chang liver cells = test: as above; type: cell-based; conditions: normal cell line
Procedure: as §1, §2

HT22 neuronal cells = test: as above; type: cell-based; conditions: normal cell line
Procedure: as §1, §2

[5] = system: breast cancer cell line MCF-7; test: as above; type: cell-based
Procedure: as §1, §2

CK8/18 complex = target: T3, CK8/18 complex; test: ELISA with recombinant protein as coating antigen; type: binding; conditions: mixture of the two proteins as coating antigen
[6] = system: human liver cancer tissues; test: Immunohistostaining of human cancer tissues using TAB-K94 antibody; conditions: liver cancer tissues (data not shown)
Excerpt: (§3) Based on the reactivity against cancer cells, expression of TAB-K94 antibody-reactive antigen was examined by immunohistostaining of human liver cancer tissues and breast cancer tissues using TAB-K94 antibodies.

[7] = system: human breast cancer tissues; test: as above; conditions: in particular invasive front
Excerpt: as §3

[8] = target: T4, CK8/18 mixture (CK8/18 complex); test: Western blotting of recombinant proteins with TAB-K94 antibody; type: binding; conditions: mixture of CK8 and CK18
Excerpt: (§4) ID NO. 33), CK18 [NT] ID NO. 34), [NT] ID NO.

CK8 [9] = target: T2, CK8; test: as above; type: binding; conditions: CK8 run alone
Excerpt: as §4

CK18 [10] = target: T1, CK18; test: as above; type: binding; conditions: CK18 run alone
Excerpt: as §4

[11] = system: MCF-7 or HT29 cells having the suppressed CK8 or CK18 expression; test: Flow cytometry of cells with siRNA-suppressed CK8 or CK18 expression; type: cell-based; conditions: 72 hours after siRNA treatment
Procedure: As siRNAs for the suppression of CK8 and CK18 expression, siRNAs (CK8 Sense: 5′-CCG CAG UUA CGG UCA ACC A(dTdT)-3′ (SEQ ID NO. 23), Antisense: 5′-UGG UUG ACC GUA ACU GCG G(dTdT)-3′ (SEQ ID NO. 24), CK18 Sense: 5′-CUC ACA GAG CUG AGA CGU A(dTdT)-3′ (SEQ ID NO. 25), Antisense: 5′-UAC GUC UCA GCU CUG UGA C(dTdT)-3′ (SEQ ID NO. 26)) provided by Bioneer were used, and injected into MCF-7 or HT29 cells using Lipofectamine 2000 (Invitrogen). 72 hours after siRNA treatment, the cells were collected to extract total RNA, and 5 μg of RNA was used as a template to synthesize cDNA. The synthesized cDNA was used as a template to perform polymerase chain reaction using primers having specificity to CK8 and CK18. The resulting product was analyzed on a 1% agarose gel.
The cells showing the suppressed CK8 and CK18 expression by siRNA in RT-PCR were subjected to flow cytometry in the same manner as in Examples 1 and 3, in order to examine their TAB-K94 antibody reaction. […] However, the previous studies reported that […] form a complex to exert intracellular function. Therefore, it can be assumed that variation in the expression of one of the two proteins affects that of the other protein, and this assumption was examined by Western blotting. After treatment of siRNA for CK8 or CK18, Western blotting was performed using specific antibody to each.

[12] = system: breast cancer cell line MCF-7; test: Western blotting of cell lysate and serum-free cell culture medium with TAB-K94 antibody; type: binding; conditions: MCF-7 cell lysate and cell culture medium, 50 μg protein
Procedure: Expression of TAB-K94 antibody-specific antigen proteins was examined in various cancer cell lines by Western blotting (FIG. 5A). The detailed method is as follows. The cells to be analyzed were collected and dissolved in PBS containing RIPA buffer (0.1% (w/v) SDS, 0.1% (w/v) sodium deoxycholate, 1.0% (v/v) NP40, protease inhibitor cocktail (Roche)) to be used as protein analysis samples. Protein quantification was performed by Bradford assay. Each 50 μg of the prepared protein samples was run on 10% reduced SDS-PAGE, and transferred onto a PVDF membrane. […] As a result, the TAB-K94 antibody-specific antigens were found in the liver cancer cell lines including Hep3B, PLC/PRF/5, and SK-Hep1 as a band having a molecular weight of 45 kDa.
For induction of antibodies in the individual, a specific protein should be released into the blood. That is, extracellular release of proteins expressed within the cells supports the induction of autoantibodies. Therefore, the presence of antigens was examined in the cell culture medium of cell lines expressing TAB-K94 antibody-specific antigens by Western blotting. Each 10 ml of serum-free cell culture medium was collected, and concentrated, and each 50 μg of the quantified protein was run on 10% reduced SDS-PAGE. Western blotting was performed in the same manner as above.

| Molecule | reactivity against TAB-K94 antibody in ELISA (TAB-K94 antibody) | reactivity in ELISA (CK18 [1]) | reactivity in ELISA (CK8 [2]) | intracellular localization of staining [3] | reactivity measured by flow cytometry after intracellular staining [4] | reactivity measured by flow cytometry after intracellular staining (Chang liver cells) | reactivity measured by flow cytometry after intracellular staining (HT22 neuronal cells) | reactivity measured by flow cytometry after intracellular staining [5] | reactivity in ELISA (CK8/18 complex) | staining of tissue by immunohistochemistry [6] | staining of tissue by immunohistochemistry [7] | reactivity in Western blotting [8] | reactivity in Western blotting (CK8 [9]) | reactivity in Western blotting (CK18 [10]) | TAB-K94 antibody reaction after siRNA suppression of CK8 or CK18 [11] | reactivity in Western blotting [12] |
| --- | --- | --- | --- | --- | --- | --- | --- | --- | --- | --- | --- | --- | --- | --- | --- | --- |
| ISPDAHS (Ile-Ser-Pro-Asp-Ala-His-Ser) [K94p1] | high reactivity |  |  |  |  |  |  |  |  |  |  |  |  |  |  |  |
| TLSHTRT (Thr-Leu-Ser-His-Thr-Arg-Thr) [K94p7] | no reactivity |  |  |  |  |  |  |  |  |  |  |  |  |  |  |  |
| B1 |  | not observed | not observed | strongly localized in the cell membrane | High reactivity; also recorded: noticeably increased | lower reactivity | lower reactivity | High reactivity; also recorded: noticeably increased | the reactivity was observed | hardly any distinct reaction; also recorded: no distinct reaction | strong complete staining; also recorded: strong staining around cell membrane | showed reactivity | no reactivity | no reactivity | reduced | very high reactivity |
